The values that follow come from US12410253B2, “Compositions comprising anti-NRP2 antibodies” (aTyr Pharma, Inc., priority 2019, dated 2025).

First the molecules themselves.
T1: Human NRP2 (aa23-855) (Homo sapiens, UniProt O60462)
T1 construct: Human NRP2 (aa23-855)
T1 sequence (O60462 23-855 isoform O60462-3): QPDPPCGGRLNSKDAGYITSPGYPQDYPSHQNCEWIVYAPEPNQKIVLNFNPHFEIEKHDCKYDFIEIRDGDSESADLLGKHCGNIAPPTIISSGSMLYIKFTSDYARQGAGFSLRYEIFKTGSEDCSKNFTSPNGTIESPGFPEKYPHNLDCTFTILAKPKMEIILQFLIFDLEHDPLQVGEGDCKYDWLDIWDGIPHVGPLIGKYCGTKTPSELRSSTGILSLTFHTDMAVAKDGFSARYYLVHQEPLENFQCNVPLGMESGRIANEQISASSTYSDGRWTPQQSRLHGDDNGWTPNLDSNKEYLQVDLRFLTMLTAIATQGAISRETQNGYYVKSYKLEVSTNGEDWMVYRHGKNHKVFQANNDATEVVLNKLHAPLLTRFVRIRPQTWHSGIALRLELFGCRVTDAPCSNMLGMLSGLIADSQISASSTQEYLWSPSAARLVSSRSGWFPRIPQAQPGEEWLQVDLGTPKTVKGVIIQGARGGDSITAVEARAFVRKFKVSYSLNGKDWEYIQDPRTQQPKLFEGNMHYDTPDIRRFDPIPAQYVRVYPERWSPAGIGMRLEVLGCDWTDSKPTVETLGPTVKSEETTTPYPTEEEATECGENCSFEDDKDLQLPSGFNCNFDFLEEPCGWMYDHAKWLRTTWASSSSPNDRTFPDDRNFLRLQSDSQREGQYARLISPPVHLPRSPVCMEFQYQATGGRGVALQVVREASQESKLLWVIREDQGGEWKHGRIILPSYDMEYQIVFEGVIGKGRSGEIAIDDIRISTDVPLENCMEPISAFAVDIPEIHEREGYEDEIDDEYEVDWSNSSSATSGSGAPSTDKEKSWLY

B1: aNRP2-2v4: humanized, affinity matured anti-NRP2 antibody, target domain c; VH SEQ ID NO: 45, VL SEQ ID NO: 46 (antibody, V domains shown)
VH: QVQLVQSGAEVKKPGASVKVSCKASGYTFTSYWMHWVRQAPGQGLEWMGVIHPNSASTFYNERFKTRATMTVDRSSSTAYMELSSLRSEDTAVYYCSRPGTVRRSDYWGQGTTVTVSS
VL: DVVMTQSPLSLPVTLGQPASISCRSSQNIVHSTGNTYLEWYQQRPGQSPRLLIYKVSNRFSGVPDRFSGSGSGTDFTLKISRVEAEDVGVYYCFQGSHVPWTFGGGTKVEIK
modifications: Variable heavy chain region; Light chain variable region
B2: aNRP2-1v3: humanized, affinity matured anti-NRP2 antibody, target domain b2; VH SEQ ID NO: 43, VL SEQ ID NO: 44 (antibody, V domains shown)
VH: QVQLVQSGAEVKKPGASVKVSCKASGYTFTSYWMHWVRQAPGQGLEWMGAIYPGNSDTSYNQQFKGRVTMTRDTSTSTVYMELSSLRSEDTAVYYCARRGGGYFDYWGQGTLVTVSS
VL: DIQLTQSPSFLSASVGDRVTITCKASQNVGAAVAWYQQKPGKAPKLLIYSASNRYTGVPSRFSGSGSGTEFTLTISSLQPEDFATYYCQQYSSYPLLTFGGGTKVEIK
modifications: Variable heavy chain region; Light chain variable region
B3: aNRP2-10v13: humanized, affinity matured anti-NRP2 antibody, target domain b1; VH SEQ ID NO: 69, VL SEQ ID NO: 70 (antibody, V domains shown)
VH: EVQLVQSGAEVKKPGATVKISCKVSGFNIKDYYVHWVQQAPGKGLEWMGRIDVHDDETKYAPKFQGRVTITADTSTDTAYMELSSLRSEDTAVYYCATPIYGAREAWFAYWGQGTLVTVSS
VL: DIQMTQSPSSLSASVGDRVTITCTASSSVSSSYLHWYQQKPGKAPKLLIYRTSNLASGVPSRFSGSGSGTDFTLTISSLQPEDFATYYCHQYYRSPPTFGGGTKVEIK
modifications: Variable heavy chain region; Light chain variable region
B4: aNRP2-10v5: humanized, affinity matured anti-NRP2 antibody, target domain b1; VH SEQ ID NO: 47, VL SEQ ID NO: 48 (antibody, V domains shown)
VH: EVQLVQSGAEVKKPGATVKISCKVSGFNIKDYYIHWVQQAPGKGLEWMGRIDVEDDETKYAPKFQGRVTITADTSTDTAYMELSSLRSEDTAVYYCATPIYGSREAWFAYWGQGTLVTVSS
VL: DIQMTQSPSSLSASVGDRVTITCTASSSVSSSYLHWYQQKPGKAPKLLIYRTSNLASGVPSRFSGSGSGTDFTLTISSLQPEDFATYYCHQYYRSPPTFGGGTKVEIK
modifications: Variable heavy chain region; Light chain variable region

The target of this experiment is T1, Human NRP2 (aa23-855). Description: SPR binding affinity of anti-NRP2 antibodies to human NRP2 antigen. The settings on record: KD = kd/ka, Langmuir (1:1) model. On the procedure: Anti-NRP2 antibody binding and affinity measurements. […] SPR experiments were conducted on a Bio-Rad ProteOn XPR36 Protein Interaction Array instrument. Biotinylated anti-human antibody (ThermoFisher Cat #7103302100) was immobilized on ProteOn NLC sensor chips. Anti-NRP2 antibodies were subsequently flowed over and captured by the anti-human antibody. Human NRP2 antigen protein was flowed over the captured antibody at varying concentrations (150, 50, 16.67, 5.56, 1.85 nM). The sensor chip surface was regenerated between each analyte run to remove anti-NRP2 antibodies and NRP2 protein. Data was double referenced against a surface with no anti-NRP2 antibody captured (immobilized anti-human antibody only) and a buffer only blank. Affinity constants were derived by globally fitting sensograms to a Langmuir (1:1) interaction model in the ProteOn manager software. For each anti-NRP2 antibody, data from the multiple NRP2 concentrations was fit as a single data set with dissociation rate constant (kd), association rate constant (ka) and Rmax values as global parameters. The reported binding affinity is the equilibrium dissociation constant (KD) calculated from kd/ka. • Running buffer: 50 mM HEPES, 300 mM NaCl, 5 mM CaCl2), 0.005% Tween-20, pH 7.4 • Immobilized antibody: CaptureSelect Human Fab-kappa Kinetics Biotin Conjugate, ThermoFisher Cat #7103302100 • Antigen: Human NRP2 (aa23-855) with C-terminal Avi-, Myc- and His-tags • Regeneration buffer: 10 mM glycine pH 2.0
In general terms: Surface plasmon resonance follows binding to a sensor surface in real time, without labels.
B1 yielded a Kd of 2.7 nM.
The molecule B2 came in with a Kd of 17 nM.
As for B3, binding was put at a Kd of 0.358 nM.
In the case of B4, the affinity, expressed as Kd, was 0.2 nM. Against the preceding molecule, the Kd is about 1.8-fold lower.

In general, Kd refers to the free concentration of one partner at which half of the binding sites on the other are occupied at equilibrium, for simple one-to-one binding. Read a low Kd as a tighter complex.
